Experimental findings from patent publication US20250051465A1 (published 2025) are described below.

Assay [1] has as its target T1, preformed complex of hLEPR-MMH and human Leptin (human, UniProt P41159 22-167).
T1 construct: also called hLEPR-MMH: human Leptin complex; Leptn;LEPR
Kind of assay: SPR, mAb over preformed hLEPR-MMH:Leptin complex, 25C. On the procedure: The entire study was performed in 10 mM HEPES pH 7.4, 150 mM NaCl, 3 mM EDTA, and 0.05% v/v Surfactant Tween-20 (HBS-ET running buffer) at 25° C.

Assay [2] deals with T2, full length human LEPR on cells (human, UniProt P48357 22-1165).
T2 construct: also called HEK293/Stat3-luc/hLEPR-FL; hLEPR-FL
T2 sequence: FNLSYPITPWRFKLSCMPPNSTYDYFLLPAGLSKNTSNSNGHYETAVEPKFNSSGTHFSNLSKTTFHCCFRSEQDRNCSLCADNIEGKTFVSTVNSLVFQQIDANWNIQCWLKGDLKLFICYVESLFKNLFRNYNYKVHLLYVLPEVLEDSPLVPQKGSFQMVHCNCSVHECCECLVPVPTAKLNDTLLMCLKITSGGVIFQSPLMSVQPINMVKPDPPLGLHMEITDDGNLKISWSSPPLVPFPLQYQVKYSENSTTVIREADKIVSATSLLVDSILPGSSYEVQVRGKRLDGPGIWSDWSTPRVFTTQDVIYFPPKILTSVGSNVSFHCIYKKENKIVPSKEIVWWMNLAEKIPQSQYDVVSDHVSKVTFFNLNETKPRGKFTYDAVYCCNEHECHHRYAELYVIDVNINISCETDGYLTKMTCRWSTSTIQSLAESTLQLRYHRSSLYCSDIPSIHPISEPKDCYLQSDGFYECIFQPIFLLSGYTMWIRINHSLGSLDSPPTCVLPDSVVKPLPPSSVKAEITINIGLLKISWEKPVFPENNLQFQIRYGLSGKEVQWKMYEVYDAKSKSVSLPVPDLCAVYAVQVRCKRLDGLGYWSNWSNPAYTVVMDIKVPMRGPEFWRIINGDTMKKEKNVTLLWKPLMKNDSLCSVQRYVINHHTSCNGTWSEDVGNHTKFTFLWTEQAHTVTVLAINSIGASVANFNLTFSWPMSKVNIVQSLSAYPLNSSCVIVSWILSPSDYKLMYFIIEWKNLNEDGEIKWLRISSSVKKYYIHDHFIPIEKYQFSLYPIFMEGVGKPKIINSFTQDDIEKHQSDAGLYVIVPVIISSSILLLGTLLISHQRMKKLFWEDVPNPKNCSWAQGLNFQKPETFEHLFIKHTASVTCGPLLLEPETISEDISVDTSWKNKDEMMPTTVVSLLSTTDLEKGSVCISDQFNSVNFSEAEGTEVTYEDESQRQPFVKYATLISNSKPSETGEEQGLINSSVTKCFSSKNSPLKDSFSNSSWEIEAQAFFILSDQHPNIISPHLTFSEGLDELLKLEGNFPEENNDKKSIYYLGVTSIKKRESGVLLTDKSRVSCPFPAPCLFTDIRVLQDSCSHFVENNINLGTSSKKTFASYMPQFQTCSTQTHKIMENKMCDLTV
Kind of assay: FACS, HEK293/Stat3-luc/hLEPR-FL, 70 nM Ab.

In assay [3] the target is T3, extracellular domain portion of LEPR protein expressed with a C-terminal human Fc tag (hLEPR.hFc) (human).
T3 construct: also called dimeric human LEPR
As to the kind of experiment: blocking ELISA: 10 nM hLEPR.hFc to coated hLeptin, 500 nM Ab. The protocol:
These antibody-protein or protein-protein complexes were then incubated for 1.5 hour at room temperature (RT). […] Samples were developed with a TMB solution (BD Biosciences, #555214; substrate A and B mixed at 1:1 ratio as per manufacturer's instructions) to produce a colorimetric reaction and then neutralized with 1M sulfuric acid before measuring absorbance at 450 nm on a Victor X5 plate reader.
Data analysis was performed using a sigmoidal dose-response model within Prism™ software (GraphPad). […] In the calculation, binding signal of 10 nM of hLEPR.hFc without the presence of the antibody was referenced as 100% binding or 0% blocking; and the baseline signal of buffer alone without the presence of hLEPR.hFc was referenced as 0% binding or 100% blocking.

Assay [4] addresses extracellular domain of Macaca fascicularis LEPR fused with the transmembrane and cytosolic domains of human … (Macaca fascicularis; human, UniProt P48357 840-1165). Kind of assay: cell-based or functional assay.

T1 sequence (P41159 22-167 limits assumed, one chain of several): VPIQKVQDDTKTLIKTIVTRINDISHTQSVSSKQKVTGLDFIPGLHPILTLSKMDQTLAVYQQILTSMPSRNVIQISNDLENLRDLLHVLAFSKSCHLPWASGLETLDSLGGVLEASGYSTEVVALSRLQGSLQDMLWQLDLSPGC

B1: H4H16650P2 (antibody, human IgG4, V domains shown)
VH: QVQLVESGGGVVQPGKSLRLSCVASGFTFSSDAMYWVRQAPGKGLEWVAVIYYDGNYQYYEDSVKGRFTISRDNSQNTLDLQMNSLRVDDTAVYFCARLNWDYWYLDLWGRGTLVTVSS
VL: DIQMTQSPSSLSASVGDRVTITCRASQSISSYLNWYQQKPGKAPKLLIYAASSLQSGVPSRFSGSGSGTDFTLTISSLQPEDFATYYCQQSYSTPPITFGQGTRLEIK
notes: Fully human antibody with human IgG4 Fc (H4H prefix)
On to B1, for which the “200 nM mAb Bound (RU)” value in assay [1] stood at 81 RU. Moreover, the “Binding Ratio” value in assay [2] was found to be 42 fold over unstained. Besides, the “% blockade” value in assay [3] was -7%. Besides, in assay [4], the “% Activation” value was determined as 82% and the “EC50, STAT3-Luc reporter, IMR-32/STAT3-Luc/MfLEPR cells” value (shortened to “EC50 … IMR-32/STAT3-Luc/MfLEPR cells”) was determined as 0.266 nM.

B2: H4H17319P2 (antibody, human IgG4, V domains shown)
VH: QVQLVESGGSVVQPGRSLRLSCAASGFTFSTYAMYWVRQTPGKGLEWVAVLYSDGSNKYYIDSVKGRFTISRDTSTNTLYLQMSSLRADDSALYYCARLNWDYWYFDLWGRGTLVTVSS
VL: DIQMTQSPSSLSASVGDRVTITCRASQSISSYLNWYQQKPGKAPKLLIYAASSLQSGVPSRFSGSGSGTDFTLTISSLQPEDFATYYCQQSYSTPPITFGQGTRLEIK
notes: as for B1
With B2, in assay [1], the “200 nM mAb Bound (RU)” value was determined as 92 RU. Besides, the “Binding Ratio” value in assay [2] worked out at 47 fold over unstained. Besides, in assay [3], the “% blockade” value turned out to be 9%. In addition, in assay [4], the “% Activation” value worked out at 76% and the “EC50 … IMR-32/STAT3-Luc/MfLEPR cells” value was determined as 0.365 nM.

B3: H4H18446P2 (antibody, human IgG4, V domains shown)
VH: EVQLVESGGGLVQPGGSLRLSCAASGFTFSNYGMTWVRQAPGKGLEWVSAITGGGGSTYYSNSVKGRFTISRDNSKNTVYLRMNSVRAEDTAVYYCAKYKWNFVDDWGQGTTVTVSS
VL: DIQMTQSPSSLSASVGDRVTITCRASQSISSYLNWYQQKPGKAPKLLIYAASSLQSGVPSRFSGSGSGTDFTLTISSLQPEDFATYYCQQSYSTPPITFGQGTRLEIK
notes: as for B1
With B3, the “% blockade” value in assay [3] is -5%.

B4: H4H16679P2 (antibody, human IgG4, V domains shown)
VH: QVQLVESGGGVVQPGRSLRLSCTASGFTFSSYAMYWVRQAPGKGLEWVSVIYYDGSYKYYADSVKGRFTISRDNSKNTLYLQMDSLRAEDTAVYYCASYNWNYWYFDFWGRGTLVTVSS
VL: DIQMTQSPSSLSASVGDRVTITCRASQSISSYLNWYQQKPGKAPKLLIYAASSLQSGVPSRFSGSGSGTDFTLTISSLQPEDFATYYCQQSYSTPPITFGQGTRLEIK
notes: as for B1
In the case of B4, the “200 nM mAb Bound (RU)” value in assay [1] is 90 RU. For the same molecule, in assay [2], the “Binding Ratio” value was determined as 51 fold over unstained. In addition, in assay [3], the “% blockade” value worked out at 7%. In addition, in assay [4], the “% Activation” value came out at 80% and the “EC50 … IMR-32/STAT3-Luc/MfLEPR cells” value was 0.249 nM.

B5: H4H17321P2 (antibody, human IgG4, V domains shown)
VH: QVQLVESGGGVVQPGRSLRLSCEASGFSSSDNAMYWVRQAPGKGLEWVSVIYHDGSYKYYEDSVKGRFTIARDNSKNTLYLQMNSLRAEDTAVYYCARYNWNHWYFDVWGRGTLVTVSS
VL: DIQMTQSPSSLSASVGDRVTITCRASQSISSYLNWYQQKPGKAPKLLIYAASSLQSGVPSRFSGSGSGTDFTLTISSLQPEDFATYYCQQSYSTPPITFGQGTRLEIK
notes: as for B1
On to B5, for which, in assay [2], the “Binding Ratio” value is 46 fold over unstained. In assay [3], the “% blockade” value was 6%. Besides, in assay [4], the “% Activation” value was determined as 78% and the “EC50 … IMR-32/STAT3-Luc/MfLEPR cells” value came out at 0.368 nM.

B6: H4H18445P2 (antibody, human IgG4, V domains shown)
VH: QVQLQESGPGLVKPSQTLSLTCTVSGGSISSGGDYWSWIRQLPGKGLEWIGYIYYSGSAYYNPSLKSRGTISIDTSKNQFSLKLTSVTAADTAVYFCVKLRFLEWFLGGWFGPWGQGTLVTVSS
VL: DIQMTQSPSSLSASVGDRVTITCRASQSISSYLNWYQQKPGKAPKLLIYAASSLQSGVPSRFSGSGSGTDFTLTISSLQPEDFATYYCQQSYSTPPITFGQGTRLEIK
notes: as for B1
Consider B6, for which, in assay [3], the “% blockade” value worked out at 28%.

B7: H4H18438P2 (antibody, human IgG4, V domains shown)
VH: QVQLVESGGGVVQPGRSLRLSCAASGFSFNTYGMHWVRQAPGKGLEWVTIIWYDGSIKYYADSVKGRFTISRDNSKNTLYLQMNSLRAEDTAVYYCARGGYSGYLYFDYWGQGTLVTVSS
VL: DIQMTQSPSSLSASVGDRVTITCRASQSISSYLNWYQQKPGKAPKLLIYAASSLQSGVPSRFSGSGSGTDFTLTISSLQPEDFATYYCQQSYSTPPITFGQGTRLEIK
notes: as for B1
On to B7, for which the “% blockade” value in assay [3] came to 15%.

B8: H4H18449P2 (antibody, human IgG4, V domains shown)
VH: EVQLVESGGGLVQPGGSLRLSCVASGFTFNKYDMHWVRQTTGKGLEWVSGIDTDGDTYYPGSVKGRFTISRENAENSLYLQMNGLRVGDTAVYYCARWPWSGFYGAFDIWGQGTMVTVSS
VL: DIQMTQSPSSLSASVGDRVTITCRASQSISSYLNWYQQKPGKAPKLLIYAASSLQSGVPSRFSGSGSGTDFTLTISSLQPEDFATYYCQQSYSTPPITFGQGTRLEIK
notes: as for B1
Turning to B8, the “% blockade” value in assay [3] came to 8%.

B9: H4H18417P2 (antibody, human IgG4, V domains shown)
VH: QVQLVESGGGVVQPGRSLRLSCAASGFTFSTYGMHWVRQAPGKGLEWVSVISYDESNKYYADSVKGRFTISRDNSKNALYLQMNSLRNEDTAVYYCARDRPFGLVTGWFDPWGQGTLVTVSS
VL: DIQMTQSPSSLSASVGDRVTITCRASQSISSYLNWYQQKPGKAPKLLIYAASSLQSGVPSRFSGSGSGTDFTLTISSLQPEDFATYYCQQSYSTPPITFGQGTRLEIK
notes: as for B1
Take B9: the “% blockade” value in assay [3] turned out to be 16%.
